Results: patent US20230375528A1, “SCREENING METHOD FOR THE IDENTIFICATION OF NOVEL THERAPEUTIC COMPOUNDS” (European Molecular Biology Laboratory, priority 2020, published 2023)

Assay: basal enzymatic activity of recombinant ENO1 variants in vitro in the absence of RNA
Type: biochemical
Settings: recombinant protein in vitro
Description: Comparison of ENO1's RNA-binding (PNK), and ENO1's enzymatic activity in HeLa cells, indirectly measured by the accumulation of lactate in the medium (n=3). b. Michaelis-Menten saturation curve of the basal enzymatic activity of recombinant ENO1wt, ENO1down and ENO1up in vitro in the absence of RNA using a non-linear curve fitting with least squares regression (n=3). c. Vmax and Km measurements for ENO1wt, ENO1down and ENO1up as determined from the Michaelis-Menten saturation curve in c. The asymmetrical confidence interval (CI) is given (n=3). d. Three distinct sets of target and control RNAs (5 μM) were nucleofected into mESCs. Upon nucleofection of the control or target RNAs, the lactate accumulation in the medium was measured after 30, 60 and 90 minutes and used to estimate the accumulation rate by calculating the slope. The R2 value was used as a quality control. […]
Relative enzymatic activity of ENO1wt, ENO1up, ENO1down and ENO1 as determined with recombinant proteins in vitro (n=3). b. […] Upon nucleofection of the control or target RNAs, the lactate accumulation in the medium was measured after 30, 60 and 90 minutes and used to estimate the accumulation rate (n=3). The standard deviation is given and the statistically significant differences were detected using two-way ANOVA and Sidak-corrected for multiple comparison testing. c. […]

## ENO1down: ENO1 mutant K343A with reduced RNA binding
  enzymatic activity: as enzymatically active as the wild-type protein
